Tests used:
[1] = molecular target: OTUB1 (C91S), catalytically inactive mutant (UniProt Q96FW1 1-271, C91S); test: ITC
OTUB1 wild-type = OTUB1 wild-type (UniProt Q96FW1 1-271); test: ITC
Chain of OTUB1 wild-type (Q96FW1 whole entry): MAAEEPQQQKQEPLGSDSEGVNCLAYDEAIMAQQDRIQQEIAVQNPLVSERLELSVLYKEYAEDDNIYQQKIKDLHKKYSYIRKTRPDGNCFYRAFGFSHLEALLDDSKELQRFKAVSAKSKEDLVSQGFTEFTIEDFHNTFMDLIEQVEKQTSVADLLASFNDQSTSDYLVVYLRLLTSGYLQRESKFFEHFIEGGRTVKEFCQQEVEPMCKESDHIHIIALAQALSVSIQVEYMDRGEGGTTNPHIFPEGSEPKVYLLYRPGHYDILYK

Chain of OTUB1 (C91S), catalytically inactive mutant (Q96FW1 whole entry C91S): as the sequence (Q96FW1 whole entry) above, with C91S counted along it

B1: UBE2D1 (enzyme)
chain: not shown
binding result [1]: binds
binding result (OTUB1 wild-type): binds

B2: UBE2N (enzyme, human, UniProt P61088 1-152, looked up)
chain: MAGLPRRIIKETQRLLAEPVPGIKAEPDESNARYFHVVIAGPQDSPFEGGTFKLELFLPEEYPMAAPKVRFMTKIYHPNVDKLGRICLDILKDKWSPALQIRTVLLSIQALLSAPNPDDPLANDVAEQWKTNEAQAIETARAWTRLYAMNNI
Kd [1]: 8.1 µM

B3: UBE2E1 (enzyme, human, UniProt P51965 1-193, looked up)
chain: MSDDDSRASTSSSSSSSSNQQTEKETNTPKKKESKVSMSKNSKLLSTSAKRIQKELADITLDPPPNCSAGPKGDNIYEWRSTILGPPGSVYEGGVFFLDITFTPEYPFKPPKVTFRTRIYHCNINSQGVICLDILKDNWSPALTISKVLLSICSLLTDCNPADPLVGSIATQYMTNRAEHDRMARQWTKRYAT
binding result [1]: binds

From paper doi:10.1101/847806 (bioRxiv, 2019)
